{
  "source": "patent US20060140858A1",
  "about": "“Drug pre-targeting by means of bi-specific antibodies and hapten constructs comprising a carrier peptide and the active agent(s)” (Immunomedics, Inc., priority 2002, published 2006)",
  "key": {"[1]": {"assay": "Control group: clearance of 111-In-indium-IMP-156 alone", "assay_type": "in vivo, nude mice", "conditions": "female, NCRNU nude, mouse, total radioactivity"}, "[2]": {"tested_on": "GW-39 tumor xenografts", "assay": "Control group: clearance of 111-In-indium-IMP-156 alone", "assay_type": "in vivo, nude mice", "conditions": "3 h"}, "[3]": {"assay": "Pretargeting: 125-I-hMN-14 × 734 bsAb, 48 h later 111-In-indium-IMP-156, biodistribution", "assay_type": "in vivo, nude mice", "conditions": "female, nude (Taconic NCRNU), mouse, 3 h post peptide"}, "[4]": {"tested_on": "GW-39 tumor xenografts", "assay": "Pretargeting: 125-I-hMN-14 × 734 bsAb, 48 h later 111-In-indium-IMP-156, biodistribution", "assay_type": "in vivo, nude mice", "conditions": "3 h post peptide"}, "[5]": {"assay": "Pretargeting: I-125 F6 × 734-F(ab′)2, 72 h later In-111-IMP-225, biodistribution", "conditions": "female, mouse, in vivo, 10 uCi, total radioactivity, % ID/g tissue"}},
  "note": "Where a SMILES comes first, the peptide text is derived from it. The star is where a group is joined. DTPA = O=C(O)CN(CCN(CC(=O)O)CC(=O)O)CCN(CC(=O)O)CC(=O)*",
  "data": [
    {"smiles": "CC(=O)N[C@@H](Cc1ccccc1)C(=O)N[C@@H](CCCCNC(=O)CN(CCN(CCN(CC(=O)O)CC(=O)O)CC(=O)O)CC(=O)O)C(=O)N[C@@H](Cc1ccc(O)cc1)C(=O)N[C@@H](CCCCNC(=O)CN(CCN(CCN(CC(=O)O)CC(=O)O)CC(=O)O)CC(=O)O)C(N)=O", "note": "[IMP 156, Ac-Phe-Lys(DTPA)-Tyr-Lys(DTPA)-NH2] (Ac-FK(DTPA)YK(DTPA)-NH2)", "values": [
      {"measurement": "tissue uptake at 3 h", "setting": "[1]; Blood", "result": "0.05 ± 0.01", "unit": "%ID/g"},
      {"measurement": "tissue uptake at 3 h", "setting": "[1]; Kidney", "result": "0.93 ± 0.13", "unit": "%ID/g"},
      {"measurement": "tissue uptake at 3 h", "setting": "[1]; Liver", "result": "0.42 ± 0.1", "unit": "%ID/g"},
      {"measurement": "tissue uptake at 3 h", "setting": "[1]; Lungs", "result": "0.04 ± 0.01", "unit": "%ID/g"},
      {"measurement": "tissue uptake at 3 h", "setting": "[1]; Spleen", "result": "0.28 ± 0.09", "unit": "%ID/g"},
      {"measurement": "tissue uptake at 3 h", "setting": "[1]; Tumor", "result": "0.14 ± 0.02", "unit": "%ID/g"},
      {"measurement": "T/NT", "setting": "[2]; Blood", "result": "3.1 ± 0.7"},
      {"measurement": "T/NT", "setting": "[2]; Kidney", "result": "0.2 ± 0.03"},
      {"measurement": "T/NT", "setting": "[2]; Liver", "result": "0.3 ± 0.1"},
      {"measurement": "T/NT", "setting": "[2]; Lungs", "result": "3.5 ± 0.7"},
      {"measurement": "T/NT", "setting": "[2]; Spleen", "result": "0.5 ± 0.1"},
      {"measurement": "T/NT", "setting": "[2]; Tumor", "result": 1},
      {"measurement": "tissue uptake at 3 h", "setting": "[3]; Blood", "result": "0.7 ± 0.2", "unit": "%ID/g"},
      {"measurement": "tissue uptake at 3 h", "setting": "[3]; Kidney", "result": "1.9 ± 0.5", "unit": "%ID/g"},
      {"measurement": "tissue uptake at 3 h", "setting": "[3]; Lungs", "result": "0.4 ± 0.1", "unit": "%ID/g"},
      {"measurement": "tissue uptake at 3 h", "setting": "[3]; tumor", "result": "52 ± 1.9", "unit": "%ID/g"},
      {"measurement": "T/NT", "setting": "[4]; Blood", "result": "7.6 ± 1.5"},
      {"measurement": "T/NT", "setting": "[4]; Kidney", "result": "2.6 ± 0.5"},
      {"measurement": "T/NT", "setting": "[4]; Liver", "result": "10.6 ± 3.5"},
      {"measurement": "T/NT", "setting": "[4]; Lungs", "result": "12 ± 2"},
      {"measurement": "T/NT", "setting": "[4]; Spleen", "result": "12 ± 6"},
      {"measurement": "T/NT", "setting": "[4]; tumor", "result": 1}
    ]},
    {"smiles": "COc1cccc2c1C(=O)c1c(O)c3c(c(O)c1C2=O)C[C@@](O)(C(=O)CO)C[C@@H]3O[C@H]1C[C@H](NC(=O)CSC[C@H](NC(C)=O)C(=O)N[C@@H](CCCCNC(=O)CN(CCN(CCN(CC(=O)O)CC(=O)O)CC(=O)O)CC(=O)O)C(=O)N[C@@H](Cc2ccc(O)cc2)C(=O)N[C@@H](CCCCNC(=O)CN(CCN(CCN(CC(=O)O)CC(=O)O)CC(=O)O)CC(=O)O)C(N)=O)[C@H](O)[C@H](C)O1", "note": "[IMP 225]", "values": [
      {"measurement": "tissue uptake at 1 h", "setting": "[5]; NCRNU nude, Spleen, 1 h", "result": "1.6 ± 2.4", "unit": "%ID/g"},
      {"measurement": "tissue uptake at 1 h", "setting": "[5]; nude (Taconic NCRNU), Blood, 1 h", "result": "2 ± 0.4", "unit": "%ID/g"},
      {"measurement": "tissue uptake at 4 h", "setting": "[5]; nude (Taconic NCRNU), Blood, 4 h", "result": "1.3 ± 0.2", "unit": "%ID/g"},
      {"measurement": "tissue uptake at 24 h", "setting": "[5]; nude (Taconic NCRNU), Blood, 24 h", "result": "0.4 ± 0.2", "unit": "%ID/g"},
      {"measurement": "tissue uptake at 1 h", "setting": "[5]; nude (Taconic NCRNU), GW-39, 1 h", "result": "14.6 ± 14", "unit": "%ID/g"},
      {"measurement": "tissue uptake at 4 h", "setting": "[5]; nude (Taconic NCRNU), GW-39, 4 h", "result": "16.5 ± 4.8", "unit": "%ID/g"},
      {"measurement": "tissue uptake at 24 h", "setting": "[5]; nude (Taconic NCRNU), GW-39, 24 h", "result": "10.1 ± 2.3", "unit": "%ID/g"},
      {"measurement": "tissue uptake at 1 h", "setting": "[5]; nude (Taconic NCRNU), Kidney, 1 h", "result": "3.8 ± 0.9", "unit": "%ID/g"},
      {"measurement": "tissue uptake at 4 h", "setting": "[5]; nude (Taconic NCRNU), Kidney, 4 h", "result": "3.8 ± 0.4", "unit": "%ID/g"},
      {"measurement": "tissue uptake at 24 h", "setting": "[5]; nude (Taconic NCRNU), Kidney, 24 h", "result": "1.7 ± 0.3", "unit": "%ID/g"},
      {"measurement": "tissue uptake at 1 h", "setting": "[5]; nude (Taconic NCRNU), Large Int., 1 h", "result": 0.2, "unit": "%ID/g"},
      {"measurement": "tissue uptake at 4 h", "setting": "[5]; nude (Taconic NCRNU), Large Int., 4 h", "result": "0.3 ± 0.1", "unit": "%ID/g"},
      {"measurement": "tissue uptake at 24 h", "setting": "[5]; nude (Taconic NCRNU), Large Int., 24 h", "result": 0.1, "unit": "%ID/g"},
      {"measurement": "tissue uptake at 1 h", "setting": "[5]; nude (Taconic NCRNU), Liver, 1 h", "result": "0.4 ± 0.2", "unit": "%ID/g"},
      {"measurement": "tissue uptake at 4 h", "setting": "[5]; nude (Taconic NCRNU), Liver, 4 h", "result": "0.4 ± 0.1", "unit": "%ID/g"},
      {"measurement": "tissue uptake at 24 h", "setting": "[5]; nude (Taconic NCRNU), Liver, 24 h", "result": "0.3 ± 0.1", "unit": "%ID/g"},
      {"measurement": "tissue uptake at 1 h", "setting": "[5]; nude (Taconic NCRNU), Lungs, 1 h", "result": "0.8 ± 0.4", "unit": "%ID/g"},
      {"measurement": "tissue uptake at 4 h", "setting": "[5]; nude (Taconic NCRNU), Lungs, 4 h", "result": "0.6 ± 0.1", "unit": "%ID/g"},
      {"measurement": "tissue uptake at 24 h", "setting": "[5]; nude (Taconic NCRNU), Lungs, 24 h", "result": "0.2 ± 0.1", "unit": "%ID/g"},
      {"measurement": "tissue uptake at 1 h", "setting": "[5]; nude (Taconic NCRNU), Muscle, 1 h", "result": "0.3 ± 0.2", "unit": "%ID/g"},
      {"measurement": "tissue uptake at 4 h", "setting": "[5]; nude (Taconic NCRNU), Muscle, 4 h", "result": 0.2, "unit": "%ID/g"},
      {"measurement": "tissue uptake at 24 h", "setting": "[5]; nude (Taconic NCRNU), Muscle, 24 h", "result": 0.1, "unit": "%ID/g"},
      {"measurement": "tissue uptake at 1 h", "setting": "[5]; nude (Taconic NCRNU), Small Int., 1 h", "result": "0.4 ± 0.1", "unit": "%ID/g"},
      {"measurement": "tissue uptake at 4 h", "setting": "[5]; nude (Taconic NCRNU), Small Int., 4 h", "result": "0.3 ± 0.2", "unit": "%ID/g"},
      {"measurement": "tissue uptake at 24 h", "setting": "[5]; nude (Taconic NCRNU), Small Int., 24 h", "result": 0.1, "unit": "%ID/g"},
      {"measurement": "tissue uptake at 4 h", "setting": "[5]; nude (Taconic NCRNU), Spleen, 4 h", "result": "0.4 ± 0.1", "unit": "%ID/g"},
      {"measurement": "tissue uptake at 24 h", "setting": "[5]; nude (Taconic NCRNU), Spleen, 24 h", "result": "0.4 ± 0.1", "unit": "%ID/g"},
      {"measurement": "tissue uptake at 1 h", "setting": "[5]; nude (Taconic NCRNU), Stomach, 1 h", "result": "1.1 ± 0.9", "unit": "%ID/g"},
      {"measurement": "tissue uptake at 4 h", "setting": "[5]; nude (Taconic NCRNU), Stomach, 4 h", "result": "0.4 ± 0.2", "unit": "%ID/g"},
      {"measurement": "tissue uptake at 24 h", "setting": "[5]; nude (Taconic NCRNU), Stomach, 24 h", "result": 0.1, "unit": "%ID/g"},
      {"measurement": "tissue uptake at 1 h", "setting": "[5]; nude (Taconic NCRNU), Tail, 1 h", "result": "1.2 ± 0.1", "unit": "%ID/g"},
      {"measurement": "tissue uptake at 4 h", "setting": "[5]; nude (Taconic NCRNU), Tail, 4 h", "result": "0.8 ± 0.2", "unit": "%ID/g"},
      {"measurement": "tissue uptake at 24 h", "setting": "[5]; nude (Taconic NCRNU), Tail, 24 h", "result": "0.5 ± 0.7", "unit": "%ID/g"}
    ]}
  ]
}
